Measured values published in the Human Domainome abundance scans (Beltran et al. 2025).
± gives the uncertainty stated by the source.

B1: Segment polarity protein dishevelled homolog DVL-3, residues 2 to 81; numbered along this chain, Q92997 (parent)
chain: GETKIIYHLDGQETPYLVKLPLPAERVTLADFKGVLQRPSYKFFFKSMDDDFGVVKEEISDDNAKLPCFNGRVVSWLVSA

Variants of: B1
Assay: abundance fitness (aPCA) (normalised: wild type 0, dead -1); higher = more abundant; growth selection in yeast, the domain comes from the species named
Settings: Homo sapiens

Variant | abundance fitness
GETKIIYHLDGQETPYLVKLPLPAERVTHADFKGVLQRPSYKFFFKSMDDDFGVVKEEISDDNAKLPCFNGRVVSWLVSA [L29H] | -0.433 ± 0.14
GETKIIYHLDGQETPYLVKLPLPAERVTCADFKGVLQRPSYKFFFKSMDDDFGVVKEEISDDNAKLPCFNGRVVSWLVSA [L29C] | -0.287 ± 0.12
GETKIIYHLDGQETPYLVKLPLPAERVTYADFKGVLQRPSYKFFFKSMDDDFGVVKEEISDDNAKLPCFNGRVVSWLVSA [L29Y] | -0.321 ± 0.16
GETKIIYHLDGQETPYLVKLPLPAERVTKADFKGVLQRPSYKFFFKSMDDDFGVVKEEISDDNAKLPCFNGRVVSWLVSA [L29K] | -0.917 ± 0.14
GETKIIYHLDGQETPYLVKLPLPAERVTDADFKGVLQRPSYKFFFKSMDDDFGVVKEEISDDNAKLPCFNGRVVSWLVSA [L29D] | -0.97 ± 0.21
GETKIIYHLDGQETPYLVKLPLPAERVTAADFKGVLQRPSYKFFFKSMDDDFGVVKEEISDDNAKLPCFNGRVVSWLVSA [L29A] | -0.639 ± 0.089
GETKIIYHLDGQETPYLVKLPLPAERVTGADFKGVLQRPSYKFFFKSMDDDFGVVKEEISDDNAKLPCFNGRVVSWLVSA [L29G] | -0.643 ± 0.065
GETKIIYHLDGQETPYLVKLPLPAERVTTADFKGVLQRPSYKFFFKSMDDDFGVVKEEISDDNAKLPCFNGRVVSWLVSA [L29T] | -0.608 ± 0.098
GETKIIYHLDGQETPYLVKLPLPAERVTQADFKGVLQRPSYKFFFKSMDDDFGVVKEEISDDNAKLPCFNGRVVSWLVSA [L29Q] | -0.91 ± 0.15
GETKIIYHLDGQETPYLVKLPLPAERVTEADFKGVLQRPSYKFFFKSMDDDFGVVKEEISDDNAKLPCFNGRVVSWLVSA [L29E] | -0.782 ± 0.11
GETKIIYHLDGQETPYLVKLPLPAERVTWADFKGVLQRPSYKFFFKSMDDDFGVVKEEISDDNAKLPCFNGRVVSWLVSA [L29W] | -0.783 ± 0.12
GETKIIYHLDGQETPYLVKLPLPAERVTNADFKGVLQRPSYKFFFKSMDDDFGVVKEEISDDNAKLPCFNGRVVSWLVSA [L29N] | -0.865 ± 0.22
GETKIIYHLDGQETPYLVKLPLPAERVTMADFKGVLQRPSYKFFFKSMDDDFGVVKEEISDDNAKLPCFNGRVVSWLVSA [L29M] | -0.71 ± 0.15
GETKIIYHLDGQETPYLVKLPLPAERVTIADFKGVLQRPSYKFFFKSMDDDFGVVKEEISDDNAKLPCFNGRVVSWLVSA [L29I] | -0.675 ± 0.19
GETKIIYHLDGQETPYLVKLPLPAERVTSADFKGVLQRPSYKFFFKSMDDDFGVVKEEISDDNAKLPCFNGRVVSWLVSA [L29S] | -0.498 ± 0.078
GETKIIYHLDGQETPYLVKLPLPAERVTLHDFKGVLQRPSYKFFFKSMDDDFGVVKEEISDDNAKLPCFNGRVVSWLVSA [A30H] | -0.692 ± 0.19
GETKIIYHLDGQETPYLVKLPLPAERVTLQDFKGVLQRPSYKFFFKSMDDDFGVVKEEISDDNAKLPCFNGRVVSWLVSA [A30Q] | -0.465 ± 0.1
GETKIIYHLDGQETPYLVKLPLPAERVTLWDFKGVLQRPSYKFFFKSMDDDFGVVKEEISDDNAKLPCFNGRVVSWLVSA [A30W] | -0.517 ± 0.09
GETKIIYHLDGQETPYLVKLPLPAERVTLIDFKGVLQRPSYKFFFKSMDDDFGVVKEEISDDNAKLPCFNGRVVSWLVSA [A30I] | -0.82 ± 0.21
GETKIIYHLDGQETPYLVKLPLPAERVTLCDFKGVLQRPSYKFFFKSMDDDFGVVKEEISDDNAKLPCFNGRVVSWLVSA [A30C] | -0.696 ± 0.15
GETKIIYHLDGQETPYLVKLPLPAERVTLVDFKGVLQRPSYKFFFKSMDDDFGVVKEEISDDNAKLPCFNGRVVSWLVSA [A30V] | -0.742 ± 0.098
GETKIIYHLDGQETPYLVKLPLPAERVTLTDFKGVLQRPSYKFFFKSMDDDFGVVKEEISDDNAKLPCFNGRVVSWLVSA [A30T] | -0.795 ± 0.15
GETKIIYHLDGQETPYLVKLPLPAERVTLYDFKGVLQRPSYKFFFKSMDDDFGVVKEEISDDNAKLPCFNGRVVSWLVSA [A30Y] | -0.468 ± 0.16

Variant | abundance fitness
GETKIIYHLDGQETPYLVKLPLPAERVTLMDFKGVLQRPSYKFFFKSMDDDFGVVKEEISDDNAKLPCFNGRVVSWLVSA [A30M] | -0.479 ± 0.1
GETKIIYHLDGQETPYLVKLPLPAERVTLFDFKGVLQRPSYKFFFKSMDDDFGVVKEEISDDNAKLPCFNGRVVSWLVSA [A30F] | -0.858 ± 0.21
GETKIIYHLDGQETPYLVKLPLPAERVTLRDFKGVLQRPSYKFFFKSMDDDFGVVKEEISDDNAKLPCFNGRVVSWLVSA [A30R] | 0.034 ± 0.041
GETKIIYHLDGQETPYLVKLPLPAERVTLSDFKGVLQRPSYKFFFKSMDDDFGVVKEEISDDNAKLPCFNGRVVSWLVSA [A30S] | -0.261 ± 0.062
GETKIIYHLDGQETPYLVKLPLPAERVTLKDFKGVLQRPSYKFFFKSMDDDFGVVKEEISDDNAKLPCFNGRVVSWLVSA [A30K] | 0.007 ± 0.066
GETKIIYHLDGQETPYLVKLPLPAERVTLEDFKGVLQRPSYKFFFKSMDDDFGVVKEEISDDNAKLPCFNGRVVSWLVSA [A30E] | -0.831 ± 0.14
GETKIIYHLDGQETPYLVKLPLPAERVTLLDFKGVLQRPSYKFFFKSMDDDFGVVKEEISDDNAKLPCFNGRVVSWLVSA [A30L] | -0.562 ± 0.08
GETKIIYHLDGQETPYLVKLPLPAERVTLDDFKGVLQRPSYKFFFKSMDDDFGVVKEEISDDNAKLPCFNGRVVSWLVSA [A30D] | -0.967 ± 0.2
GETKIIYHLDGQETPYLVKLPLPAERVTLNDFKGVLQRPSYKFFFKSMDDDFGVVKEEISDDNAKLPCFNGRVVSWLVSA [A30N] | -0.433 ± 0.19
GETKIIYHLDGQETPYLVKLPLPAERVTLGDFKGVLQRPSYKFFFKSMDDDFGVVKEEISDDNAKLPCFNGRVVSWLVSA [A30G] | -0.045 ± 0.046
GETKIIYHLDGQETPYLVKLPLPAERGTLADFKGVLQRPSYKFFFKSMDDDFGVVKEEISDDNAKLPCFNGRVVSWLVSA [V27G] | -0.675 ± 0.063
GETKIIYHLDGQETPYLVKLPLPAERPTLADFKGVLQRPSYKFFFKSMDDDFGVVKEEISDDNAKLPCFNGRVVSWLVSA [V27P] | -0.656 ± 0.14
GETKIIYHLDGQETPYLVKLPLPAERQTLADFKGVLQRPSYKFFFKSMDDDFGVVKEEISDDNAKLPCFNGRVVSWLVSA [V27Q] | -0.831 ± 0.18
GETKIIYHLDGQETPYLVKLPLPAERNTLADFKGVLQRPSYKFFFKSMDDDFGVVKEEISDDNAKLPCFNGRVVSWLVSA [V27N] | -0.785 ± 0.24
GETKIIYHLDGQETPYLVKLPLPAERYTLADFKGVLQRPSYKFFFKSMDDDFGVVKEEISDDNAKLPCFNGRVVSWLVSA [V27Y] | -0.651 ± 0.23
GETKIIYHLDGQETPYLVKLPLPAERRTLADFKGVLQRPSYKFFFKSMDDDFGVVKEEISDDNAKLPCFNGRVVSWLVSA [V27R] | -0.875 ± 0.087
GETKIIYHLDGQETPYLVKLPLPAERKTLADFKGVLQRPSYKFFFKSMDDDFGVVKEEISDDNAKLPCFNGRVVSWLVSA [V27K] | -0.469 ± 0.11
GETKIIYHLDGQETPYLVKLPLPAERFTLADFKGVLQRPSYKFFFKSMDDDFGVVKEEISDDNAKLPCFNGRVVSWLVSA [V27F] | -0.154 ± 0.12
GETKIIYHLDGQETPYLVKLPLPAERTTLADFKGVLQRPSYKFFFKSMDDDFGVVKEEISDDNAKLPCFNGRVVSWLVSA [V27T] | -0.762 ± 0.16
GETKIIYHLDGQETPYLVKLPLPAERSTLADFKGVLQRPSYKFFFKSMDDDFGVVKEEISDDNAKLPCFNGRVVSWLVSA [V27S] | -0.675 ± 0.1
GETKIIYHLDGQETPYLVKLPLPAERWTLADFKGVLQRPSYKFFFKSMDDDFGVVKEEISDDNAKLPCFNGRVVSWLVSA [V27W] | -0.929 ± 0.14
GETKIIYHLDGQETPYLVKLPLPAERHTLADFKGVLQRPSYKFFFKSMDDDFGVVKEEISDDNAKLPCFNGRVVSWLVSA [V27H] | -0.664 ± 0.19
GETKIIYHLDGQETPYLVKLPLPAERITLADFKGVLQRPSYKFFFKSMDDDFGVVKEEISDDNAKLPCFNGRVVSWLVSA [V27I] | 0.003 ± 0.1

Variant | abundance fitness
GETKIIYHLDGQETPYLVKLPLPAERVTLAAFKGVLQRPSYKFFFKSMDDDFGVVKEEISDDNAKLPCFNGRVVSWLVSA [D31A] | -0.099 ± 0.065
GETKIIYHLDGQETPYLVKLPLPAERVTLAGFKGVLQRPSYKFFFKSMDDDFGVVKEEISDDNAKLPCFNGRVVSWLVSA [D31G] | -0.776 ± 0.1
GETKIIYHLDGQETPYLVKLPLPAERVTLAEFKGVLQRPSYKFFFKSMDDDFGVVKEEISDDNAKLPCFNGRVVSWLVSA [D31E] | -0.178 ± 0.081
GETKIIYHLDGQETPYLVKLPLPAERVTLACFKGVLQRPSYKFFFKSMDDDFGVVKEEISDDNAKLPCFNGRVVSWLVSA [D31C] | -0.359 ± 0.13
GETKIIYHLDGQETPYLVKLPLPAERVTLAHFKGVLQRPSYKFFFKSMDDDFGVVKEEISDDNAKLPCFNGRVVSWLVSA [D31H] | 0.282 ± 0.089
GETKIIYHLDGQETPYLVKLPLPAERVTLAFFKGVLQRPSYKFFFKSMDDDFGVVKEEISDDNAKLPCFNGRVVSWLVSA [D31F] | -0.742 ± 0.24
GETKIIYHLDGQETPYLVKLPLPAERVVLADFKGVLQRPSYKFFFKSMDDDFGVVKEEISDDNAKLPCFNGRVVSWLVSA [T28V] | -0.574 ± 0.073
GETKIIYHLDGQETPYLVKLPLPAERVRLADFKGVLQRPSYKFFFKSMDDDFGVVKEEISDDNAKLPCFNGRVVSWLVSA [T28R] | -0.379 ± 0.053
GETKIIYHLDGQETPYLVKLPLPAERVDLADFKGVLQRPSYKFFFKSMDDDFGVVKEEISDDNAKLPCFNGRVVSWLVSA [T28D] | -0.401 ± 0.14
GETKIIYHLDGQETPYLVKLPLPAERVSLADFKGVLQRPSYKFFFKSMDDDFGVVKEEISDDNAKLPCFNGRVVSWLVSA [T28S] | -0.757 ± 0.099
GETKIIYHLDGQETPYLVKLPLPAERVILADFKGVLQRPSYKFFFKSMDDDFGVVKEEISDDNAKLPCFNGRVVSWLVSA [T28I] | -0.578 ± 0.15
GETKIIYHLDGQETPYLVKLPLPAERVMLADFKGVLQRPSYKFFFKSMDDDFGVVKEEISDDNAKLPCFNGRVVSWLVSA [T28M] | -0.604 ± 0.11
GETKIIYHLDGQETPYLVKLPLPAERVNLADFKGVLQRPSYKFFFKSMDDDFGVVKEEISDDNAKLPCFNGRVVSWLVSA [T28N] | -0.715 ± 0.15
GETKIIYHLDGQETPYLVKLPLPAERVQLADFKGVLQRPSYKFFFKSMDDDFGVVKEEISDDNAKLPCFNGRVVSWLVSA [T28Q] | -0.811 ± 0.13
GETKIIYHLDGQETPYLVKLPLPAERVWLADFKGVLQRPSYKFFFKSMDDDFGVVKEEISDDNAKLPCFNGRVVSWLVSA [T28W] | -0.851 ± 0.12
GETKIIYHLDGQETPYLVKLPLPAERVHLADFKGVLQRPSYKFFFKSMDDDFGVVKEEISDDNAKLPCFNGRVVSWLVSA [T28H] | -0.411 ± 0.14
GETKIIYHLDGQETPYLVKLPLPAERVKLADFKGVLQRPSYKFFFKSMDDDFGVVKEEISDDNAKLPCFNGRVVSWLVSA [T28K] | -0.52 ± 0.1
GETKIIYHLDGQETPYLVKLPLPAERVELADFKGVLQRPSYKFFFKSMDDDFGVVKEEISDDNAKLPCFNGRVVSWLVSA [T28E] | -0.985 ± 0.14
GETKIIYHLDGQETPYLVKLPLPAERVFLADFKGVLQRPSYKFFFKSMDDDFGVVKEEISDDNAKLPCFNGRVVSWLVSA [T28F] | -0.321 ± 0.16
GETKIIYHLDGQETPYLVKLPLPAERVPLADFKGVLQRPSYKFFFKSMDDDFGVVKEEISDDNAKLPCFNGRVVSWLVSA [T28P] | -0.555 ± 0.1
GETKIIYHLDGQETPYLVKLPLPAERVLLADFKGVLQRPSYKFFFKSMDDDFGVVKEEISDDNAKLPCFNGRVVSWLVSA [T28L] | -0.73 ± 0.091
GETKIIYHLDGQETPYLVKLPLPAERVGLADFKGVLQRPSYKFFFKSMDDDFGVVKEEISDDNAKLPCFNGRVVSWLVSA [T28G] | -0.597 ± 0.064
GETKIIYHLDGQETPYLVKLPLPAERVCLADFKGVLQRPSYKFFFKSMDDDFGVVKEEISDDNAKLPCFNGRVVSWLVSA [T28C] | -0.793 ± 0.16
